Experiment [1] has as its target full-length beta-Catenin (Uniprot ID P35222) (Homo sapiens (Human)) (UniProt P35222). The experiment can be described thus: fluorescence polarization competition; peptide displaces 5FAM-TCF4(10-53) from full-length beta-catenin.
Target sequence in this assay (P35222 2-781 limits assumed): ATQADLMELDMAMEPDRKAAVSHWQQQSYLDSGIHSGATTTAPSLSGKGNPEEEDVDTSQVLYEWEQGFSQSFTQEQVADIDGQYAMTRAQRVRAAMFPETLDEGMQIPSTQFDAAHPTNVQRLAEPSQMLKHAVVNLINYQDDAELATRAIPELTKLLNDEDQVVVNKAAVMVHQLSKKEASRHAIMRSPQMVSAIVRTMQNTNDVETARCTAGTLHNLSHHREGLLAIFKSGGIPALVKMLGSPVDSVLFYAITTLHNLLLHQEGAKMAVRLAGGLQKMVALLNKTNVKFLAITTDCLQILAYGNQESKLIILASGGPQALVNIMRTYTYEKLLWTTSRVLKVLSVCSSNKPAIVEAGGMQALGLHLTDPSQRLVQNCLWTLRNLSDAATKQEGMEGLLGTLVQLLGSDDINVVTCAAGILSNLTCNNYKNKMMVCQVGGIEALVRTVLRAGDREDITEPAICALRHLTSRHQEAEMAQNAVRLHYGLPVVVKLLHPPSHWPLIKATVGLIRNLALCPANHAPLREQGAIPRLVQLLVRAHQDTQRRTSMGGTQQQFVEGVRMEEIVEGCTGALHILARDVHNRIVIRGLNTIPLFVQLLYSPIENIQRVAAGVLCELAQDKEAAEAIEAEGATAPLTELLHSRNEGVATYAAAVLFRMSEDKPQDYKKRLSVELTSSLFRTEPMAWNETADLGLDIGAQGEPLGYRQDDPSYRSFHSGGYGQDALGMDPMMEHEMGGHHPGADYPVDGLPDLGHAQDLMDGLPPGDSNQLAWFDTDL
The target is the same in experiment [2]. The experiment can be described thus: fluorescence polarization competition: peptide titrated against 10 nM full-length beta-catenin + 10 nM 5FAM-TCF4(10-53) probe. Background: Polarisation of emitted light reports the rotation of a fluorescent probe.
Target sequence in this assay (P35222 2-781 limits assumed): as above
Experiment [3] concerns the target Bcat-Halo (UniProt P35222). The experiment can be described thus: NanoBRET Abs IC50, Bcat-Halo/TCF4-Luc in HEK293 cells. A general note: In BRET a luciferase serves as donor, and the signal depends on an acceptor being close.
Experiment [4] deals with full-length beta-Catenin (Uniprot ID P35222) (Homo sapiens (Human)) (UniProt P35222). The experiment can be described thus: fluorescence polarization competition; displaces 5FAM-TCF4(10-53) from full-length beta-catenin.
Target sequence in this assay (P35222 2-781 limits assumed): as above
For experiment [5] the target is unchanged. The experiment is described as follows: fluorescence polarization competition; 10 nM full-length beta-catenin + 10 nM 5FAM-TCF4(10-53) probe.
Target sequence in this assay (P35222 whole entry, one chain of several): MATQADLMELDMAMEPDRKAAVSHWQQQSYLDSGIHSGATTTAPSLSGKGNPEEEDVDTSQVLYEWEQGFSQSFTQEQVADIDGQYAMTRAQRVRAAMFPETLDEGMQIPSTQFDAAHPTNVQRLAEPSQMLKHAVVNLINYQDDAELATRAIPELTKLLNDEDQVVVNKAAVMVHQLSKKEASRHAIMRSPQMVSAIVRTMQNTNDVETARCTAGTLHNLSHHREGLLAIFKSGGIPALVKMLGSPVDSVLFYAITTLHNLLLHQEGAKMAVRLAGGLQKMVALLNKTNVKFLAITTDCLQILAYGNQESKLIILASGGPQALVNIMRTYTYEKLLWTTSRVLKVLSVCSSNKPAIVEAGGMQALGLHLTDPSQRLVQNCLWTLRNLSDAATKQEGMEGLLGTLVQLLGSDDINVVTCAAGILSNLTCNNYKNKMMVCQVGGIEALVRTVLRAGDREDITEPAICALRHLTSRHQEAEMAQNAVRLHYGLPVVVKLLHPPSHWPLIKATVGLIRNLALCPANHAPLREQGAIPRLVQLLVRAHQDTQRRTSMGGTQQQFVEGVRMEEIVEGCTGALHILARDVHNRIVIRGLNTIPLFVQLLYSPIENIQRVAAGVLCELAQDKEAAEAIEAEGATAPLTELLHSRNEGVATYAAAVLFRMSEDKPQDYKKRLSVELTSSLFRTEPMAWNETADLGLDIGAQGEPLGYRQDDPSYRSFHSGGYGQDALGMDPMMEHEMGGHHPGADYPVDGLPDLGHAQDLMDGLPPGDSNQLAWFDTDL
For experiment [6] the target is unchanged. The experiment can be described thus: fluorescence polarization competition; peptide titrated against full-length beta-catenin + 5FAM-TCF4(10-53).
Target sequence in this assay (P35222 whole entry, one chain of several): as above
Experiment [7] has the same target. The experiment is described as follows: fluorescence polarization competition; full-length beta-catenin with 5FAM-labeled TCF4 residues 10-53 probe as competitor.
Target sequence in this assay (P35222 whole entry, one chain of several): as above
Experiment [8] shares this target. The experiment is described as follows: fluorescence polarization competition; full-length beta-catenin; competitor displaced: 5FAM-TCF4 10-53.
Target sequence in this assay (P35222 2-781 limits assumed): as the sequence (P35222 2-781 limits assumed) above
Experiment [9] has the same target. The experiment can be described thus: fluorescence polarization competition; full-length beta-catenin + 5FAM-TCF4(10-53) probe; peptide titrated.
Target sequence in this assay (P35222 2-781 limits assumed): as above

Starred links: 1 amine or outer side, 2 acyl side, 3 side chain; linkers in the order of their positions; H or OH if unused. Positions of bridges follow the written chain, without caps; N, C: chain ends. Non-standard residues stand in square brackets, D forms with d. Primed or numbered codes have the meaning given here. PyrS2″ = (S)-3-amino-1-((pent-4-en-1-yloxy)carbonyl)pyrrolidine-3-carboxylic acid (stapling residue), C=CCCCOC(=O)N1CC[C@@](N[*:1])(C(=O)[*:2])C1; B5(18) = 2,2-bis(4-pentenyl)glycine (2-amino-2-(pent-4-en-1-yl)hept-6-enoic acid), stitching residue, C=CCCCC(CCCC=C)(N[*:1])C(=O)[*:2]; B5(4) = 2,2-bis(4-pentenyl)glycine = 2-amino-2-(pent-4-en-1-yl)hept-6-enoic acid (stitching residue), C=CCCCC(CCCC=C)(N[*:1])C(=O)[*:2]; B5(5) = 2,2-bis(4-pentenyl)glycine, 2-amino-2-(pent-4-en-1-yl)hept-6-enoic acid (stitching residue), C=CCCCC(CCCC=C)(N[*:1])C(=O)[*:2]; B5(8) = 2,2-bis(4-pentenyl)glycine (2-amino-2-(pent-4-en-1-yl)hept-6-enoic acid, stitching residue), C=CCCCC(CCCC=C)(N[*:1])C(=O)[*:2]; TfeGA = (S)-2-amino-3-((carboxymethyl)(2,2,2-trifluoroethyl)amino)propanoic acid, O=C([C@H](CN(CC(=O)[*:3])CC(F)(F)F)N[*:1])[*:2]; PyrS2 = (S)-3-amino-1-((pent-4-en-1-yloxy)carbonyl)pyrrolidine-3-carboxylic acid, C=CCCCOC(=O)N1CC[C@@](N[*:1])(C(=O)[*:2])C1; B5(3) = 2,2-bis(4-pentenyl)glycine (stitching residue), C=CCCCC(CCCC=C)(N[*:1])C(=O)[*:2]; B5 = 2-amino-2-(pent-4-en-1-yl)hept-6-enoic acid, C=CCCCC(CCCC=C)(N[*:1])C(=O)[*:2]; Phe(2-Cl) = N[C@@H](Cc1ccccc1Cl)C(=O)O; Bta = N[C@@H](Cc1csc2ccccc12)C(=O)O; αAllylPro = C=CC[C@@]1(C(=O)O)CCCN1; tBuAla = CC(C)(C)C[C@H](N)C(=O)O; 3Thi = N[C@@H](Cc1ccsc1)C(=O)O; S8 = C=CCCCCCC[C@](C)(N)C(=O)O

This is an account of results in patent US20240116985A1, “STAPLED PEPTIDES AND METHODS THEREOF” (priority 2020, published 2024).

A word on the IC50: it is the concentration needed to halve the response being measured. In general, EC50 refers to the concentration giving half of the maximal effect.

Sequence of Bcat-Halo (P35222 whole entry): as the sequence (P35222 whole entry, one chain of several) above

B1: I-793 (peptide)
peptide: Ac-[αAllylPro]D[tBuAla][B5(3)]DDAAFN[PyrS2][Bta][Bta]H-NH2
modifications: staple 1-4, 4-11
In experiment [1], B1 had a 50% inhibitory concentration (IC50) of 14 nM. Moreover, the 50% effective concentration (EC50) in experiment [2] came out at 14 nM.

B2: I-1010 (peptide)
peptide: Ac-[αAllylPro]D[tBuAla][B5(5)]D[TfeGA]IAFN[PyrS2″][Phe(2-Cl)][Bta]Q-NH2
modifications: staple 1-4, 4-11
For B2, the results for the IC50 in [3] and in [5] were 13300 nM and 8 nM, respectively. Moreover, in [4], the EC50 amounted to 8 nM.

B3: I-1008 (peptide)
peptide: Ac-[αAllylPro]D[tBuAla][B5(18)]D[TfeGA]FAFN[PyrS2″][Phe(2-Cl)][Bta]Q-NH2
modifications: staple 1-4, 4-11
For the molecule B3, the IC50 in experiment [3] was determined as 14000 nM; in [5], 9 nM. In experiment [4], this molecule registered a concentration for a half-maximal effect (EC50) of 9 nM.

B4: I-1004 (peptide)
peptide: Ac-[αAllylPro]D[tBuAla][B5(18)]D[TfeGA]ASFN[PyrS2″][Phe(2-Cl)][Bta]Q-NH2
modifications: staple 1-4, 4-11
Regarding B4, the IC50 in experiment [3] turned out to be 10600 nM; in experiment [5], 5 nM. In experiment [4], the EC50 turned out to be 5 nM.

B5: I-715 (peptide)
peptide: Ac-[αAllylPro]DI[B5(3)]DEAAFN[S8]F[Bta]-NH2
modifications: staple 1-4, 4-11
Turning to B5, the IC50 in experiment [6] came out at 60.5 nM. The same molecule showed an EC50 in experiment [7] of 60.5 nM.

B6: I-718 (peptide)
peptide: Ac-[αAllylPro]D[tBuAla][B5]DEAAFN[S8][3Thi][Bta]-NH2
modifications: staple 1-4, 4-11
For the molecule B6, the concentration for half-maximal inhibition (IC50) in [6] was 82 nM. This molecule also came in with an EC50 in experiment [7] of 82 nM.

B7: I-1002 (peptide)
peptide: Ac-[αAllylPro]D[tBuAla][B5(18)]D[TfeGA]ALFN[PyrS2″][Phe(2-Cl)][Bta]Q-NH2
modifications: staple 1-4, 4-11
On to B7, for which the IC50 in [3] came out at 29800 nM; in experiment [5], 9 nM. In addition, the EC50 in experiment [4] came out at 9 nM.

B8: I-717 (peptide)
peptide: Ac-[αAllylPro]DL[B5]DEAAFN[S8][3Thi][Bta]-NH2
modifications: staple 1-4, 4-11
Take B8: the IC50 in [6] was 39 nM. Besides, in [7], the half-maximal effective concentration (EC50) turned out to be 39 nM.

B9: I-695 (peptide)
peptide: Ac-[αAllylPro]D[tBuAla][B5(8)]DDAAFN[PyrS2″][3Thi][Bta]H-NH2
modifications: staple 1-4, 4-11
B9 displayed an IC50 in experiment [8] of 5 nM. In addition, the 50% effective concentration (EC50) in experiment [9] stood at 5 nM.

B10: I-700 (peptide)
peptide: Ac-[αAllylPro]DI[B5(8)]D[TfeGA]AAFN[S8][3Thi][Bta]Q-NH2
modifications: staple 1-4, 4-11
As to B10, in experiment [8], the IC50 was 49 nM. The concentration giving a half-maximal response (EC50) in [9] was 49 nM.

B11: I-699 (peptide)
peptide: Ac-[αAllylPro]DI[B5(8)]D[TfeGA]AAFN[S8]F[Bta]Q-NH2
modifications: staple 1-4, 4-11
For B11, the half-maximal inhibitory concentration (IC50) in experiment [8] stood at 43 nM. Also, the concentration for a half-maximal effect (EC50) in [9] is 43 nM.

B12: I-792 (peptide)
peptide: Ac-[αAllylPro]D[tBuAla][B5(3)]DDAAFN[PyrS2][3Thi]WH-NH2
modifications: staple 1-4, 4-11
The molecule B12 had an IC50 in [1] of 20 nM. Moreover, the 50% effective concentration (EC50) in [2] came to 20 nM.

B13: I-1007 (peptide)
peptide: Ac-[αAllylPro]D[tBuAla][B5(18)]D[TfeGA]LAFN[PyrS2″][Phe(2-Cl)][Bta]Q-NH2
modifications: staple 1-4, 4-11
For the molecule B13, the concentration for half-maximal inhibition (IC50) in [3] is 24900 nM; in experiment [5], 6 nM. In experiment [4], this molecule yielded an EC50 of 6 nM.

B14: I-1019 (peptide)
peptide: Ac-[αAllylPro]D[tBuAla][B5(18)]DDAAFS[PyrS2″][Phe(2-Cl)][Bta]S-NH2
modifications: staple 1-4, 4-11
With B14, in experiment [3], the IC50 stood at 9600 nM. This molecule came in with an EC50 in [4] of 5 nM.

B15: I-720 (peptide)
peptide: Ac-[αAllylPro]DI[B5]DEAAFN[S8][3Thi][Bta]-NH2
modifications: staple 1-4, 4-11
As to B15, the half-maximal inhibitory concentration (IC50) in experiment [6] was 75 nM. For the same molecule, the half-maximal effective concentration (EC50) in experiment [7] was determined as 75 nM.

B16: I-716 (peptide)
peptide: Ac-[αAllylPro]DL[B5]DEAAFN[S8][3Thi][Bta]-NH2
modifications: staple 1-4, 4-11
For the molecule B16, the IC50 in experiment [6] was found to be 91 nM. This molecule also returned a half-maximal effective concentration (EC50) in experiment [7] of 91 nM.

B17: I-714 (peptide)
peptide: Ac-[αAllylPro]DI[B5(3)]DEAAFN[S8]F[Bta]-NH2
modifications: staple 1-4, 4-11
Turning to B17, the half-inhibitory concentration (IC50) in experiment [6] was 131 nM. In experiment [7], this molecule came in with an EC50 of 131 nM.

B18: I-1011 (peptide)
peptide: Ac-[αAllylPro]D[tBuAla][B5(18)]D[TfeGA]KAFN[PyrS2″][Phe(2-Cl)][Bta]Q-NH2
modifications: staple 1-4, 4-11
Take B18: the values for the concentration for half-maximal inhibition (IC50) in experiment [3] and in [5] were 20800 nM and 5 nM, respectively. Besides, the 50% effective concentration (EC50) in experiment [4] stood at 5 nM.

B19: I-702 (peptide)
peptide: Ac-[αAllylPro]DI[B5(8)]D[TfeGA]AAFN[S8][3Thi][Bta]H-NH2
modifications: staple 1-4, 4-11
Take B19: the half-maximal inhibitory concentration (IC50) in [8] is 76 nM. Besides, the EC50 in [9] is 76 nM.

B20: I-712 (peptide)
peptide: Ac-[αAllylPro]D[tBuAla][B5(3)]DEAAFN[S8]F[Bta]-NH2
modifications: staple 1-4, 4-11
For the molecule B20, in experiment [6], the half-inhibitory concentration (IC50) was 92 nM. Besides, the EC50 in experiment [7] worked out at 92 nM.

B21: I-1016 (peptide)
peptide: Ac-[αAllylPro]D[tBuAla][B5(18)]DNAAFT[PyrS2″][Phe(2-Cl)][Bta]S-NH2
modifications: staple 1-4, 4-11
As to B21, the figures for the half-inhibitory concentration (IC50) in [3] and in [5] were 21400 nM and 8 nM, respectively. This molecule had an EC50 in experiment [4] of 8 nM.

B22: I-1017 (peptide)
peptide: Ac-[αAllylPro]D[tBuAla][B5(18)]DDAAFS[PyrS2″][Phe(2-Cl)][Bta]Q-NH2
modifications: staple 1-4, 4-11
For B22, the values for the IC50 in experiment [3] and in experiment [5] were 8900 nM and 5 nM, respectively. This molecule also registered an EC50 in [4] of 5 nM.

B23: I-698 (peptide)
peptide: Ac-[αAllylPro]D[tBuAla][B5(8)]DEAAFN[PyrS2″][3Thi][Bta]H-NH2
modifications: staple 1-4, 4-11
B23 had an IC50 in experiment [8] of 5 nM. Moreover, the EC50 in experiment [9] is 5 nM.

B24: I-713 (peptide)
peptide: Ac-[αAllylPro]D[tBuAla][B5(3)]DEAAFN[S8]F[Bta]-NH2
modifications: staple 1-4, 4-11
B24: the IC50 in [6] came to 70 nM. Also, the concentration giving a half-maximal response (EC50) in experiment [7] came out at 70 nM.

B25: I-719 (peptide)
peptide: Ac-[αAllylPro]D[tBuAla][B5]DEAAFN[S8][3Thi][Bta]-NH2
modifications: staple 1-4, 4-11
Consider B25, for which, in [6], the 50% inhibitory concentration (IC50) was determined as 38 nM. Further, in [7], the EC50 was 38 nM.
